In patent US6734169B2, “Apolipoprotein A-I agonists and their use to treat dyslipidemic disorders” (priority 1997, dated 2004):
Square brackets hold non-standard residues; d marks the D form. Primed or numbered codes have the meaning given here. Ends that are not written are not given here. Nal″ = Z is Nal (naphthylalanine; Nal = Z in the sequences is Nal; Aib = CC(C)(N)C(=O)O

Legend:
[1] = Circular dichroism: degree of helicity; format: physicochemical; conditions: for He (%) TFE / He (%) free / He (%) mics / He (%) SUVs: percent helicity, 37° C.; for He (%) TFE: 5 μM peptide, 90% vol TFE; for He (%) free: unbound peptide, 5 μM in 5 mM phosphate buffer, pH 7.4; for He (%) mics: peptide-micelle complexes (1-myristoyl-2-hydroxy-sn-glycero-3-phosphatidyl choline, Ri=100); for He (%) SUVs: peptide-SUV complexes (20:1 EPC:Chol., Ri=50)
Experimental: Far UV circular dichroism spectra were recorded between 190 and 260 nm (in 0.5 nm or 0.2 nm increments) with a AVIV62DS spectrometer (AVIV Associates, Lakewood, N.J., USA) equipped with a thermoelectric cell holder and sample changer. The instrument was calibrated with (+)-10-[…]. Between one and three scans were collected for each sample, using 10 cm, 5 cm, 1 cm and 0.1 cm path length quartz Suprasil cells, respectively, for peptide concentrations of 10^−7 M to 10^−4 M. The bandwidth was fixed at 1.5 nm and the scan speed to 1s per wavelength step. The reported data are the mean of at least 2 or 3 independent measurements.
After background subtraction, spectra were converted to molar ellipticity (θ) per residue in […]. The peptide concentration was determined by amino acid analysis and also by absorption spectrometry on a Perkin Elmer Lambda 17 UV/Visible spectrophotometer when the peptide contained a chromophore (tryptophan, dansyl, naphthylalanine).
CD spectra were obtained with free, unbound peptide (5 μM in 5 mM phosphate buffer, pH 7.4); with peptide-SUV complexes (20:1 EPC:Chol., Ri=50); with peptide-micelle complexes (1-myristoyl-2-hydroxy-sn-glycero-3-phosphatidyl choline, Ri=100); and with free, unbound peptide in the presence of 2,2,2-trifluoroethanol (TFE) (5 μM peptide, 90% vol TFE).
The SUVs were obtained by dispersing the lipids (10 mM, 20:1 EPC:Chol., Avanti Polar Lipids, AL) in phosphate buffer (5 mM, pH 7.4) with bubbling N2 for 5 min., followed by sonication (1.5 hr.) in a bath sonicator. The homogeneity of the preparation was checked by FPLC.
The micelles were obtained by dispersing the lipid (6 mM 1-myristoyl-2-hydroxy-sn-glycero-3-phosphatidyl choline, Avanti Polar Lipids, AL) in phosphate buffer (5 mM, pH 7.4) with bubbling N2 for 5 min., followed by vortexing.
To obtain the peptide-SUV complexes, SUVs were added to the peptide (5 μM in 5 mM phosphate buffer, pH 7.4) at a phospholipid-peptide molar ratio (Ri) of […].
To obtain the peptide-micelle complexes, micelles were added to the peptide (5 μM in 5 mM phosphate buffer, pH 7.4) at a Ri of 100.
All spectra were recorded at 37° C. The stability of peptide 210 (SEQ ID NO:210) as a function of temperature (both free in buffer and in micelles) was determined by recording spectra at a series of different temperatures.
The degree of helicity of the peptides in the various conditions was determined from the mean residue ellipticity at 222 nm (Chen et al., 1974, Biochemistry 13:3350-3359) or by comparing the CD spectra obtained to reference spectra available on databases (16 helical reference spectra from Provencher & Glockner, 1981, Biochemistry 20:33-37; denatured protein reference spectra from Venyaminov et al., 1993, Anal. Biochem. 214:17-24) using the CONTIN curve-fitting algorithm version 2DP, CD-1 pack (August 1982) (Provencher, 1982, Comput. Phys. Commun. 27:213-227, 229-242). Acceptable fit was determined using the statistical analysis methodology provided by the CONTIN algorithm. The error of all methods was ±5% helicity.

[2] = Lipid binding by fluorescence spectroscopy; conditions: for I/Io: peptide 2 μM, 37° C.
Experimental: The lipid binding properties of the peptides synthesized in Section 6, supra, were tested by fluorescence measurements with labeled peptides, in the present case tryptophan (Trp or W) or naphthylalanine (Nal). The fluorescence spectra were recorded on a Fluoromax from Spex (Jobin-Yvon) equipped with a Xenon lamp of 150 W, two monochromators (excitation and emission), a photomultiplier R-928 for detection sensitive in the red up to 850 nm and a thermoelectric magnetic stirred cell holder. Quartz Suprasil cuvettes were used for measurements in the micromolar concentration range. A device of variable slits (from 0.4 to 5 nm) allows modulation of the incident and emitted intensities according to the concentration of peptide used. The reported values are in general the average of between 2 to 4 spectra. The peptide concentration is determined by absorption spectrometry on a Philips PU 8800 using the absorption band of the Trp (∈280 nm=5,550 M^−1 cm^−1 in Tris buffer) or the Nal (∈224 nm=92,770 M^−1 cm^−1 in methanol).
Fluorescence spectra of the peptides were recorded between 290 nm and 450 nm in Tris-HCl buffer (20 mM, pH=7.5), in the presence and absence of lipidic vesicles. The small unilamellar vesicles were formed after rehydration in buffer of the lyophilized phospholipids, dispersion and tip sonification under a N2 stream. The lipids used were either Egg PC/Chol. (20:1) or POPC/Chol. (20:1). The spectra were recorded at a peptide concentration of 2 μM and at a temperature of 37° C. The fluorescence reference standard in the case of Trp was N-acetyltryptophanylamide (NATA).
Lipid binding studies were done through progressive lipidic vesicle addition to the peptide in solution at 2 μM (slits:5 nm in excitation and 1.5 nm in emission). Dilution effects were taken into account for the fluorescence intensity determination. The lipid concentrations were varied from 10 to 600 μM and the molar ratio of lipid to peptide (Ri) was varied from 5 to 300. The wavelength of excitation was set at 280 nm for both Trp and Nal.
The data were directly recorded and treated by an IBM-PC linked to the spectrofluorimeter through the DM3000F software from Spex. The spectra were corrected by substraction of the solvent contribution and by application of a coefficient given by the constructor taking into account the variation of the photomultiplier response versus the wavelength.
The fluorescence spectra of the peptides were characterized by the wavelength at their maximum of fluorescence emission and by their quantum yield compared to NATA in the case of peptides labeled with a tryptophan. The process of binding to lipids was analyzed by calculating the shift of the wavelength at the maximum of fluorescence emission, (λmax), and the variation of the relative fluorescence intensity of emission versus the lipid concentration. The relative fluorescence intensity is defined as the following ratio: (I-I0)λmax/I0λmax. I and I0 are both measured at the (λmax) corresponding to the initial free state of the peptide i.e., without lipids. I is the intensity at a defined lipid to peptide ratio and I0 is the same parameter measured in absence of lipids. The absence of these variations is relevant to the absence of interactions of the peptides with the lipids.

[3] = EPC/Chol (20:1) small unilamellar vesicles

Substance | He (%) TFE [1] | He (%) free [1] | He (%) mics [1] | He (%) SUVs [1] | other results
pVLELFENLLERLLDALQKKLK ([dP]VLELFENLLERLLDALQKKLK) [compound 144] | 95% | 89% | 88% |  | 
PVLDZFRELLNELLEALKQKLK (PVLD[Nal]FRELLNELLEALKQKLK) [compound 34] | 62% | 58% | 67% | 68% | 
pvldlfrellnellealkqklk [compound 100] | 98% | 83% | 92% |  | 
pvldlfrellneXlealkqklk ([dP][dV][dL][dD][dL][dF][dR][dE][dL][dL][dN][dE][Aib][dL][dE][dA][dL][dK][dQ][dK][dL][dK]) [compound 96] | 81% | 52% | 85% | 63% | 
PVLDLFRELLNELLEAZKQKLK (PVLDLFRELLNELLEA[Nal″]KQKLK) [peptide 10] | 71% | 60% | 87% | 70% | 
pvldefreklneXlealkqklk ([dP][dV][dL][dD][dE][dF][dR][dE][dK][dL][dN][dE][Aib][dL][dE][dA][dL][dK][dQ][dK][dL][dK]) [compound 44] |  | 20% | 86% |  | 
PVLDLFRELLEELKQKLK [peptide 210] |  |  |  |  | stability of the α-helical structure as a function of temperature ([1]; temperature range of 5°-45° C., data not shown): completely stable
PVLDLFRELLNELZEALKQKLK (PVLDLFRELLNEL[Nal]EALKQKLK) [compound 27] | 81% | 72% | 92% | 82% | 
GVLELFENLLERLLDALQKKLK [compound 145] | 58% | 55% | 51% |  | 
.klkgklaellenllerfldlvp [compound 107] | 77% |  |  |  | 
PVLDLFRELWEELKQKLK* (Ac-PVLDLFRELWEELKQKLK-NH2) [peptide 199] |  |  |  |  | lipid binding (burying of the tryptophan, fluorescence intensity exaltation) [2, 3]: binds very effectively; lipid to peptide molar ratio at which the burying of the tryptophan residue is maximal [2, 3]: about 100; I/Io ([2]; Lipid:Peptide Molar Ratio (Ri) 0): 0; λmax (nm) ([2]; Ri 5): 344 nm; I/Io ([2]; Ri 5): 8; λmax (nm) ([2]; Ri 10): 339 nm; I/Io ([2]; Ri 10): 8; λmax (nm) ([2]; Ri 30): 328 nm; I/Io ([2]; Ri 30): 18; I/Io ([2]; Ri 60): 22; λmax (nm) ([2]; Ri 100): 326 nm; I/Io ([2]; Ri 100): 27; λmax (nm) ([2]; Ri 200): 325 nm; I/Io ([2]; Ri 200): 41; λmax (nm) ([2]; maximum of tryptophan fluorescence emission, Ri 0 (in buffer, no lipid), 2 μM): 348 nm
EWLEAFYKKVLEKLKELF* (Ac-EWLEAFYKKVLEKLKELF-NH2) [compound 239, reference compound] |  | 44% | 49% |  | 
pllellkellqellealkqklk ([dP][dL][dL][dE][dL][dL][dK][dE][dL][dL][dQ][dE][dL][dL][dE][dA][dL][dK][dQ][dK][dL][dK]) [compound 87] | 100% | 100% |  |  | 
PVLDLFRWLLNEXLEALKQKLK (PVLDLFRWLLNE[Aib]LEALKQKLK) [compound 108] |  |  |  | 54% | 
